Results reported in article PMC12933331, “A Cryptic Pocket Allosterically Modulates Oligosaccharide Binding to DC-SIGN” (JACS Au, 2026).

T1: DC-SIGN ECD T314A (Homo sapiens, UniProt Q9NNX6, T314A)
T1 construct: acids 64 -404 of DC -SIGN; made in house
T1 sequence (Q9NNX6 64-404 T314A): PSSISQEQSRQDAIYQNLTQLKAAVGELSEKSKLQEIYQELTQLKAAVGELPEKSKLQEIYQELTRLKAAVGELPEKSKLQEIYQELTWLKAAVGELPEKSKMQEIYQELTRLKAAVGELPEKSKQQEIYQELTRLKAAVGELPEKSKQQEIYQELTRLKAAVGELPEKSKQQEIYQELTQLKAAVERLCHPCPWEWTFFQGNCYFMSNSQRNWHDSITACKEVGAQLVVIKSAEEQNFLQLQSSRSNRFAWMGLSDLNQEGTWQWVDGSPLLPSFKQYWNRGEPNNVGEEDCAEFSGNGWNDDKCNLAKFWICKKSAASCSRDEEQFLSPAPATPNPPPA

T2: DC-SIGN ECD wildtype (Homo sapiens, UniProt Q9NNX6)
T2 construct: acids 64 -404 of DC -SIGN; made in house
T2 sequence (Q9NNX6 64-404): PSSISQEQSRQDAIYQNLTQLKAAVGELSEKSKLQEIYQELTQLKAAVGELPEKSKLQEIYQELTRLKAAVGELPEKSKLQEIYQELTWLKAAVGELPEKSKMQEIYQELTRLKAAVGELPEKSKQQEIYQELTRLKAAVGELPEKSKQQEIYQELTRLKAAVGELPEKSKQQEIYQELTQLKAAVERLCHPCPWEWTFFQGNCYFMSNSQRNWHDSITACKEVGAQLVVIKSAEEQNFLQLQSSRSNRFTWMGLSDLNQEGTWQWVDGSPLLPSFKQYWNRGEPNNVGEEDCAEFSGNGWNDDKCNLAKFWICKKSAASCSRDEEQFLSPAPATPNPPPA

T3: DC-SIGN ECD M270F (Homo sapiens, UniProt Q9NNX6, M270F)
T3 construct: acids 64 -404 of DC -SIGN; made in house
T3 sequence (Q9NNX6 64-404 M270F): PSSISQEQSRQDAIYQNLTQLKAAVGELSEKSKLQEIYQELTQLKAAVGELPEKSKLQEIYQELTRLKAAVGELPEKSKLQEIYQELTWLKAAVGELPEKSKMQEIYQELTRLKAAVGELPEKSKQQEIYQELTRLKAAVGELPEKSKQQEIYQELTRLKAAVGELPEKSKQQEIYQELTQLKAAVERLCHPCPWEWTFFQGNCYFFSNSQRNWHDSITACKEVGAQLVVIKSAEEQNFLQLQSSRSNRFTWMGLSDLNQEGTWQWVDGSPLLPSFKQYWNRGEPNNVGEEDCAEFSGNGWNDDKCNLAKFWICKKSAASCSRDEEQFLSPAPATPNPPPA


Experiments:
DC-SIGN ECD T314A = biological target: T1, DC-SIGN ECD T314A; test: Plate-based horseradish peroxidase assay; format: binding
DC-SIGN ECD wildtype = biological target: T2, DC-SIGN ECD wildtype; test: Plate-based horseradish peroxidase assay; format: binding; conditions: saturating CaCl2 (25 mM), plate-immobilized ECD
Protocol: (§1) chromatography. Purified protein was dialyzed against 25 mM HEPES, 150 mM NaCl, 10 mM CaCl2, pH 7.4, concentrated using a centrifugal spin filter, snap frozen and then stored at -80°C. […]
(§2) Plate-based horseradish peroxidase assay
(§3) General remarks. Unless stated otherwise, all reagents and buffers were obtained from Sigma Aldrich or Carl Roth. Measurements were done on a Enspire Multimode Plate Reader (PerkinElmer). GraphPad Prism was used for all data processing and analysis.
(§4) CaCl2 titration. 100 µg mL-1 DC-SIGN ECD were immobilized in immobilization buffer (25 mM HEPES, 150 mM NaCl, 25 mM CaCl 2, pH 7.4) overnight at 4°C on transparent Nunc Maxisorp 96-well plates (Thermo Fisher). Protein solution was removed, and plates were washed three times with immobilization buffer and then blocked for 2 hours at 4°C with blocking buffer (25 mM HEPES, 150 mM NaCl, 25 mM CaCl 2, 2% BSA, 0.01% Tween -20). Plates were washed twice with 25 mM HEPES, 150 mM NaCl, 5 mM EDTA, pH 7.4 and twice with 25 mM HEPES, 150 mM NaCl, pH 7.4 to remove residual Ca 2+. To titrate Ca2+, CaCl2 in 25 mM HEPES, 150 mM NaCl, pH 7.4 was serially diluted on the plate at a constant HRP concentration of 1 µg mL-1 and then incubated at RT for 2 hours. Following incubation, plates were washed three times with 25 mM HEPES, 150 mM NaCl, pH 7.4 and bound HRP was detected using a TMB substrate kit (Thermo Fisher) and 0.18 M H2SO4 according to manufacturer’s instructions. Absorption was […]
(§5) HRP titration. Immobilization and blocking were done as described above. After blocking, plates were washed three times with immobilization buffer. HRP in immobilization buffer was serially diluted on the plate at a constant concentration CaCl2 concentration of 25 mM and then incubated […]
(§6) at RT for 2 hours. Following incubation, plates were washed three times with immobilization buffer and HRP was detected as described above.
(§7) Immobilization and blocking were done as described above. After blocking, plates were washed three times with immobilization buffer. Mannose in immobilization buffer containing 1 µg mL-1 HRP was serially diluted on the plate and then incubated at RT for 2 hours.
(§8) Following incubation, plates were washed three times with immobilization buffer and HRP was detected as described above.
(§9) All conditions were measured in technical triplicates, averaged and normalized to the control well […]
(§10) IC50 and EC50 values and hill […]
(§11) slopes (nH) were obtained in a four-parameter fit according to equation (1).
(§12) Y = bottom + top − bottom (1)
(§13) With bottom and top representing the minimal and maximal response plateaus, respectively, Y as the observed response and X the logarithmic concentration of the ligand . […]
(§14) Biosynth. Spectra were processed in TopSpin 4.2.0 and data analysis was performed using CCPN Analysis 3.2.0 for 2D spectra and in MestreNova for 1D spectra.2 Further analysis was done using GraphPad Prism and in-house python scripts.

DC-SIGN ECD M270F = biological target: T3, DC-SIGN ECD M270F; test: Plate-based horseradish peroxidase assay; format: binding
Protocol: as §1, §2, §3, §4, §5, §6, §7, §8, §9, §10, §11, §12, §13, §14

[1] = biological target: the molecule itself; test: dynamic light scattering; purified ECDs; tetrameric state judged from mannan affinity chromatography, DLS and DSF together
[2] = HRP titration at saturating CaCl2
[3] = saturating CaCl2 (25 mM), plate-immobilized ECD

Molecule | decreased affinity compared to the wildtype (DC-SIGN ECD T314A; [2]) [fold] | EC50 (mean ± SD), HRP titration (DC-SIGN ECD T314A; [3]) [μg mL^–1] | EC50 (mean ± SD), HRP titration (DC-SIGN ECD wildtype) [µg/mL] | increased affinity compared to the wildtype (DC-SIGN ECD M270F; [2]) [fold] | EC50 (mean ± SD), HRP titration (DC-SIGN ECD M270F; [3]) [μg mL^–1] | stoichiometry N [1]
horseradish peroxidase [HRP] | 4 | 8.6 ± 0.1 | 1.8 ± 1.0 | 10 | 0.2 ± 0.2 | –
DC-SIGN extracellular domain (ECD) M270F (receptor, UniProt Q9NNX6 59-404, looked up, DC-SIGN (CD209), extracellular domain with the point mutation M270F) QVSKVPSSISQEQSRQDAIYQNLTQLKAAVGELSEKSKLQEIYQELTQLKAAVGELPEKSKLQEIYQELTRLKAAVGELPEKSKLQEIYQELTWLKAAVGELPEKSKMQEIYQELTRLKAAVGELPEKSKQQEIYQELTRLKAAVGELPEKSKQQEIYQELTRLKAAVGELPEKSKQQEIYQELTQLKAAVERLCHPCPWEWTFFQGNCYFFSNSQRNWHDSITACKEVGAQLVVIKSAEEQNFLQLQSSRSNRFTWMGLSDLNQEGTWQWVDGSPLLPSFKQYWNRGEPNNVGEEDCAEFSGNGWNDDKCNLAKFWICKKSAASCSRDEEQFLSPAPATPNPPPA | – | – | – | – | – | 4
DC-SIGN extracellular domain (ECD) T314A (receptor, UniProt Q9NNX6 59-404, looked up, DC-SIGN (CD209), extracellular domain with the point mutation T314A) QVSKVPSSISQEQSRQDAIYQNLTQLKAAVGELSEKSKLQEIYQELTQLKAAVGELPEKSKLQEIYQELTRLKAAVGELPEKSKLQEIYQELTWLKAAVGELPEKSKMQEIYQELTRLKAAVGELPEKSKQQEIYQELTRLKAAVGELPEKSKQQEIYQELTRLKAAVGELPEKSKQQEIYQELTQLKAAVERLCHPCPWEWTFFQGNCYFMSNSQRNWHDSITACKEVGAQLVVIKSAEEQNFLQLQSSRSNRFAWMGLSDLNQEGTWQWVDGSPLLPSFKQYWNRGEPNNVGEEDCAEFSGNGWNDDKCNLAKFWICKKSAASCSRDEEQFLSPAPATPNPPPA | – | – | – | – | – | 4
